Source: the supplement of paper PMC6757056
± gives the standard deviation of the averaged measurements.

B1: library; a variant is named by its letters at N, in order (parent)
chain: GCUGUCACCGAGAAACUGUGAAGUAUAUCUUAAACCUGGGCACUUAAAAGAUAUAUGGAGUUAGUAGUGCAACCUGCUCGGUCUGAUGAGUCCNNNNNNGGACGAAACAGC

Assays:
cyclic di-GMP [1] = variants of: B1; assay: normalized RNA/DNA level without ligand (relative to sTRSVctl = 100) (log10 (% of sTRSVctl)); HEK293T; ligand: cyclic di-GMP (c-di-GMP-II aptamer); higher = less ribozyme self-cleavage, higher mRNA level; details: reporter: mCherry (pCS4076), ligand present: no
How it was run: (§1)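 Total RNA, extracted with EDTA 72 h after HEK293T cells were transfected with 4 µg per 6-well well of reporter-linked ribozyme switch library plasmids, was reverse-transcribed, amplified, barcoded and sequenced. Ligand, if used, was added 1 h before transfection. RNA level was derived from RNA reads divided by DNA reads and normalized to a spiked-in non-cleaving sequence or to the top sequences. This was multiplied by 100 and log10-transformed, with the top set of 25 sequences and a ≥100 DNA read minimum.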

cyclic di-GMP [2] = variants of: B1; assay: normalized RNA/DNA level with ligand (relative to sTRSVctl = 100) (log10 (% of sTRSVctl)); HEK293T; ligand: cyclic di-GMP (c-di-GMP-II aptamer); ligand concentration (+) RNA-Seq: 1 mM; higher = less ribozyme self-cleavage, higher mRNA level; details: reporter: mCherry (pCS4076), ligand present: yes
How it was run: as §1

Variant	normalized RNA/DNA level without ligand (log10) (cyclic di-GMP [1])	normalized RNA/DNA level with ligand (log10) (cyclic di-GMP [2])
GCUGUCACCGAGAAACUGUGAAGUAUAUCUUAAACCUGGGCACUUAAAAGAUAUAUGGAGUUAGUAGUGCAACCUGCUCGGUCUGAUGAGUCCACCACAGGACGAAACAGC [ACCACA]	1.6 ± 0.019	1.76 ± 0.13
GCUGUCACCGAGAAACUGUGAAGUAUAUCUUAAACCUGGGCACUUAAAAGAUAUAUGGAGUUAGUAGUGCAACCUGCUCGGUCUGAUGAGUCCUCCAAUGGACGAAACAGC [UCCAAU]	1.645 ± 0.015	1.82 ± 0.12
GCUGUCACCGAGAAACUGUGAAGUAUAUCUUAAACCUGGGCACUUAAAAGAUAUAUGGAGUUAGUAGUGCAACCUGCUCGGUCUGAUGAGUCCUCCAAGGGACGAAACAGC [UCCAAG]	1.6 ± 0.033	1.78 ± 0.097
GCUGUCACCGAGAAACUGUGAAGUAUAUCUUAAACCUGGGCACUUAAAAGAUAUAUGGAGUUAGUAGUGCAACCUGCUCGGUCUGAUGAGUCCUCCAACGGACGAAACAGC [UCCAAC]	1.62 ± 0.037	1.78 ± 0.11
GCUGUCACCGAGAAACUGUGAAGUAUAUCUUAAACCUGGGCACUUAAAAGAUAUAUGGAGUUAGUAGUGCAACCUGCUCGGUCUGAUGAGUCCACCAAUGGACGAAACAGC [ACCAAU]	1.48 ± 0.049	1.7 ± 0.11
GCUGUCACCGAGAAACUGUGAAGUAUAUCUUAAACCUGGGCACUUAAAAGAUAUAUGGAGUUAGUAGUGCAACCUGCUCGGUCUGAUGAGUCCGCCAACGGACGAAACAGC [GCCAAC]	1.51 ± 0.086	1.66 ± 0.056
GCUGUCACCGAGAAACUGUGAAGUAUAUCUUAAACCUGGGCACUUAAAAGAUAUAUGGAGUUAGUAGUGCAACCUGCUCGGUCUGAUGAGUCCCCCACCGGACGAAACAGC [CCCACC]	1.728 ± 0.007	1.84 ± 0.097
GCUGUCACCGAGAAACUGUGAAGUAUAUCUUAAACCUGGGCACUUAAAAGAUAUAUGGAGUUAGUAGUGCAACCUGCUCGGUCUGAUGAGUCCCCCACAGGACGAAACAGC [CCCACA]	1.57 ± 0.098	1.74 ± 0.05
GCUGUCACCGAGAAACUGUGAAGUAUAUCUUAAACCUGGGCACUUAAAAGAUAUAUGGAGUUAGUAGUGCAACCUGCUCGGUCUGAUGAGUCCGCCACAGGACGAAACAGC [GCCACA]	1.654 ± 0.016	1.81 ± 0.089
GCUGUCACCGAGAAACUGUGAAGUAUAUCUUAAACCUGGGCACUUAAAAGAUAUAUGGAGUUAGUAGUGCAACCUGCUCGGUCUGAUGAGUCCCCCAACGGACGAAACAGC [CCCAAC]	1.61 ± 0.037	1.82 ± 0.086
GCUGUCACCGAGAAACUGUGAAGUAUAUCUUAAACCUGGGCACUUAAAAGAUAUAUGGAGUUAGUAGUGCAACCUGCUCGGUCUGAUGAGUCCCCCAAGGGACGAAACAGC [CCCAAG]	1.587 ± 0.0023	1.74 ± 0.17
GCUGUCACCGAGAAACUGUGAAGUAUAUCUUAAACCUGGGCACUUAAAAGAUAUAUGGAGUUAGUAGUGCAACCUGCUCGGUCUGAUGAGUCCCCCAAUGGACGAAACAGC [CCCAAU]	1.55 ± 0.066	1.77 ± 0.11
GCUGUCACCGAGAAACUGUGAAGUAUAUCUUAAACCUGGGCACUUAAAAGAUAUAUGGAGUUAGUAGUGCAACCUGCUCGGUCUGAUGAGUCCUCCACAGGACGAAACAGC [UCCACA]	1.74 ± 0.035	1.87 ± 0.12
